In PMC11933065, “Characterization of FosA13, a novel fosfomycin glutathione transferase identified in a Morganella morganii isolate from poultry” (Frontiers in Cellular and Infection Microbiology, 2025):

Test system: C[C@@H]1O[C@@H]1P(=O)(O)O
Assay: HPLC, initial rates, Michaelis-Menten fit
Format: biochemical, Morganella morganii
Settings: 10 mM GSH, 250 µM MnCl2, 100 mM KCl, 100 mM Tris-HCl, 37 °C, fosfomycin 0-800 µM, printed unit µM conflicts with printed kcat/Km (1.50 × 10^4 M^-1 s^-1), which implies mM

“FosA13 (Morganella morganii subsp. morganii KT)” gave a kcat of 6.43 ± 0.04 s⁻¹.
